Reference: the RNAGym collection of RNA variant scans (doi:10.7554/elife.80360)

B1: HDV Ribozyme (parent)
chain: GGCCGGCAUGGUCCCAGCCUCCUCGCUGGCGCCGGCUGGGCAACAUUCCGAGGGGACCGUCCCCUCGGUAAUGGCGAAUGGGACCCA

Variants of: B1
Assay: self-cleavage, relative activity (ratio to wild type); higher = more cleavage; co-transcriptional

Variant	self-cleavage
AGCCGGCAUGGUCCCAGCCUCCUCGCUGGCGCCGGCUGGGCAACAUUCCGAGGGGACCGUCCCCUCGGUAAUGGUGAAUGGGACCCA [G1A C75U]	0.0639
GGCCGGCAUGGUCCCAGCCUCCUCGCUGGCGCGGGCUGGGCAACAUUCCGAGGGGAGCGUCCCCUCGGUAAUGGCGAAUGGGACCCA [C33G C57G]	0.214
GGCCGGCAUGGUCCCAGCCUCCUCGCUGGCGCCGGAUGGGCAACAUUCCGAGGGGACCGUCCCCACGGUAAUGGCGAAUGGGACCCA [C36A U65A]	0.163
GGCCGGCAUGGUCCCAGCCGCCUCGCUGGCGCCGGCUGGGCAACAUUCCGAGGGGACCGUCCCCUUGGUAAUGGCGAAUGGGACCCA [U20G C66U]	0.148
GGCCGGCAUGGUCCCAGCCUCCUCGCUGGCGCCGGCUGGGCAACAUUCCGAGGGGACCGUCACCUCGGUAAUGGCGUAUGGGACCCA [C62A A77U]	0.45
GGCCGGCAUGGUCCCAGCCUCCUCGCUGGCGCCGGCUGGGCGACAUUCCGAAGGGACCGUCCCCUCGGUAAUGGCGAAUGGGACCCA [A42G G52A]	0.483
GGCCGGCAUGGUCCCAGCCUCCUCGCUGGCUCCGGCUGGGCAACAUUCCGAGGGGACCGUCCCCUCGGUAAUGGCGUAUGGGACCCA [G31U A77U]	0.0665
GGCCGGCAUGGUCCCAGCCUCCUCGCUGGCGCCGGCUGGGCAACAAUCCGACGGGACCGUCCCCUCGGUAAUGGCGAAUGGGACCCA [U46A G52C]	0.759
GGCCGGCAUGGUCCCAGCCUCCUCGCUGGCGCCGGCUGGGCCACAUUCCGAGGGGACCGUCCCCUCGGUAAUGGCGAAUGGCACCCA [A42C G82C]	0
GGCCGGCACGGUCCCAGGCUCCUCGCUGGCGCCGGCUGGGCAACAUUCCGAGGGGACCGUCCCCUCGGUAAUGGCGAAUGGGACCCA [U9C C18G]	0.138
GGCCGGCAUGGUCCCAGCCUCCUCGCUGGCGCCGGCCGGGCAACAUUCCGAGGGGACCGUCCCCUCGGUAAGGGCGAAUGGGACCCA [U37C U72G]	0.429
GGCCGGCAUGGUCCCAGCCUCCUCGCUGGCGCCGGCUGGGCAACAUUCCGAGGGGAGCGUCCCCUCGGUAAUGGCGAAUGGGACCCC [C57G A87C]	0.98
CGCCGGCAUGGUCCCAGCCUCCUCGCUGGCGCCGGCUGGGCAACAUUCCGAGGGGACCGUCCCCUCGGUAAUGGCGGAUGGGACCCA [G1C A77G]	0
GGCCGGCAUGGUCCCAGCCUCCUCGCUGGCGCCGGCUGGGCAACAUUCCGAGGGGACCAUCCCCUCGGUAAUGGCCAAUGGGACCCA [G59A G76C]	0.854
GGCCGGCAUGGUCCAAGCCUCCUCGCUGGCGCCGGCUGGGCAACAUUCCGAGGGGACCGUCCCCUCGGUAAUGGGGAAUGGGACCCA [C15A C75G]	0.142
GGCCGGCAUGGUGCUAGCCUCCUCGCUGGCGCCGGCUGGGCAACAUUCCGAGGGGACCGUCCCCUCGGUAAUGGCGAAUGGGACCCA [C13G C15U]	0

Variant	self-cleavage
GGCCGGCAUGGUCCCAGCCUCCUCGCUGGCGCCGGCUGGGCCACAUUUCGAGGGGACCGUCCCCUCGGUAAUGGCGAAUGGGACCCA [A42C C48U]	0.26
GGCCGGCCUGGUCCCAGCGUCCUCGCUGGCGCCGGCUGGGCAACAUUCCGAGGGGACCGUCCCCUCGGUAAUGGCGAAUGGGACCCA [A8C C19G]	0.115
GGCCGGCAUGGUCCCAGCCACCUCGCUGGCGCCGGCUGGGCAACAUUCCGAGGGGACCGUUCCCUCGGUAAUGGCGAAUGGGACCCA [U20A C61U]	0.208
GGCCGGCAUAGUCCCAGCCUCCUCGCUGGCGACGGCUGGGCAACAUUCCGAGGGGACCGUCCCCUCGGUAAUGGCGAAUGGGACCCA [G10A C32A]	0.153
GGCCGGCAGGGUCCCAGCCUCCUCGCUGGCGCGGGCUGGGCAACAUUCCGAGGGGACCGUCCCCUCGGUAAUGGCGAAUGGGACCCA [U9G C33G]	0.104
GGCCGGCAUGGUCCCAGCCUCCUCGGCGGCGCCGGCUGGGCAACAUUCCGAGGGGACCGUCCCCUCGGUAAUGGCGAAUGGGACCCA [C26G U27C]	0.795
GGCCUGCAUGGUCCCAGCCUCCUCGCUGGCGCCGGCUGGGCAACAUUCCGAGGGGACCGUUCCCUCGGUAAUGGCGAAUGGGACCCA [G5U C61U]	0.399
GGCCGGCAUGGUCCCAGCCUCCUCGCUGGCGCCGGCGGGGCAACAUUCCGAUGGGACCGUCCCCUCGGUAAUGGCGAAUGGGACCCA [U37G G52U]	0.198
GGGCGGCAUGGUCCCAGCCUCCUCGCUGGCGCCGUCUGGGCAACAUUCCGAGGGGACCGUCCCCUCGGUAAUGGCGAAUGGGACCCA [C3G G35U]	1.33
GGCCGGUAUGGUCCCAGCCUCCUCGCUGGCGCCGGCUGGGCAACAUUCCGAGGGGACCGUCCCGUCGGUAAUGGCGAAUGGGACCCA [C7U C64G]	0.892
GGCCGGUAUGGUCCCAGCCUCCUCGCUGGCGCCGGCUGGGCAACAUUCCGAGGGGACCGUCCCUUCGGUAAUGGCGAAUGGGACCCA [C7U C64U]	0.68
GGCCGGCAUGGUUCCAGCCUCCUCGCUGGCGCCGGCUGGGCAACAUUCCGAGGGGACCAUCCCCUCGGUAAUGGCGAAUGGGACCCA [C13U G59A]	0.763
GGCCGGCAUGGUCCCAGCCUCCUCGCUGGCCCCGGCUGGGCAACAUUCCGAGGGGACCGUCCCCUCGGUAAUGGCGAAUUGGACCCA [G31C G80U]	0.0811
GGCCGGCAUGGUCCUAGCCUCCUCGCUGCCGCCGGCUGGGCAACAUUCCGAGGGGACCGUCCCCUCGGUAAUGGCGAAUGGGACCCA [C15U G29C]	0.0449
GGCCGCCAUGGUCCCAGCCUCCCCGCUGGCGCCGGCUGGGCAACAUUCCGAGGGGACCGUCCCCUCGGUAAUGGCGAAUGGGACCCA [G6C U23C]	0.0639
GGCCGGCAUGGUCCCAGCCUCCUCGCUGGCGCCGGCUGGGCAACAUCCCGAGGGAACCGUCCCCUCGGUAAUGGCGAAUGGGACCCA [U47C G55A]	0.923
